{
  "source": "patent US6991790",
  "about": "(Genentech, dated 2006)",
  "binders": {"B1": {"name": "recombinant humanized anti-CD18 antibody (rhuMAb CD18) (antibody, V domains shown)", "VH": "EVQLVESGGGLVQPGGSLRLSCATSGYTFTEYTMHWMRQAPGKGLEWVAGINPKNGGTSHNQRFMDRFTISVDKSTSTAYMQMNSLRAEDTAVYYCARWRGLNYGFDVRYFDVWGQGTLVTVSS", "VL": "DIQMTQSPSSLSASVGDRVTITCRASQDINNYLNWYQQKPGKAPKLLIYYTSTLHSGVPSRFSGSGSGTDYTLTISSLQPEDFATYYCQQGNTLPPTFGQGTKVEIKR", "notes": "Tested as an F(ab')2 of two light and two heavy chains linked by disulfide bonds, made in E. coli; It was humanized from murine muMAb H52; It says the antibody is directed to the CD18 chain of MAC-1; also called anti-CD18 F(ab')2 antibody; humanized H52 antibody"}},
  "key": {"[1]": {"target": "T1, recombinant preparation of soluble MAC-1 (UniProt P11215 17-1104; P05107 23-700)", "assay": "MAC-1 capture ELISA titer over UV concentration; freeze/thaw study, F5, held at 5° C. (control)"}, "[2]": {"target": "T1, recombinant preparation of soluble MAC-1", "assay": "MAC-1 capture ELISA titer over UV concentration; F1 after three freeze/thaw cycles -70° C. to 5° C."}, "[3]": {"target": "T1, recombinant preparation of soluble MAC-1", "assay": "MAC-1 capture ELISA titer over UV concentration; F1 after three freeze/thaw cycles -20° C. to 5° C."}, "[4]": {"target": "T1, recombinant preparation of soluble MAC-1", "assay": "MAC-1 capture ELISA titer over UV concentration; freeze/thaw study, F1, held at 5° C. (control)"}, "[5]": {"target": "T1, recombinant preparation of soluble MAC-1", "assay": "MAC-1 capture ELISA titer over UV concentration; F3 after three freeze/thaw cycles -20° C. to 5° C."}, "[6]": {"target": "T1, recombinant preparation of soluble MAC-1", "assay": "MAC-1 capture ELISA titer over UV concentration; F2 after three freeze/thaw cycles -20° C. to 5° C."}, "[7]": {"target": "T1, recombinant preparation of soluble MAC-1", "assay": "MAC-1 capture ELISA titer over UV concentration; freeze/thaw study, F3, held at 5° C. (control)"}, "[8]": {"target": "T1, recombinant preparation of soluble MAC-1", "assay": "MAC-1 capture ELISA titer over UV concentration; freeze/thaw study, F4, held at 5° C. (control)"}, "[9]": {"target": "T1, recombinant preparation of soluble MAC-1", "assay": "MAC-1 capture ELISA titer over UV concentration; F4 after three freeze/thaw cycles -70° C. to 5° C."}, "[10]": {"target": "T1, recombinant preparation of soluble MAC-1", "assay": "MAC-1 capture ELISA titer over UV concentration; F4 after three freeze/thaw cycles -20° C. to 5° C."}, "[11]": {"target": "T1, recombinant preparation of soluble MAC-1", "assay": "MAC-1 capture ELISA titer over UV concentration; F3 after three freeze/thaw cycles -70° C. to 5° C."}, "[12]": {"target": "T1, recombinant preparation of soluble MAC-1", "assay": "MAC-1 capture ELISA titer over UV concentration; F5 after three freeze/thaw cycles -70° C. to 5° C."}, "[13]": {"target": "T1, recombinant preparation of soluble MAC-1", "assay": "MAC-1 capture ELISA titer over UV concentration; F2 after three freeze/thaw cycles -70° C. to 5° C."}, "[14]": {"target": "T1, recombinant preparation of soluble MAC-1", "assay": "MAC-1 capture ELISA titer over UV concentration; freeze/thaw study, F2, held at 5° C. (control)"}, "[15]": {"target": "T1, recombinant preparation of soluble MAC-1", "assay": "MAC-1 capture ELISA titer over UV concentration; F5 after three freeze/thaw cycles -20° C. to 5° C."}},
  "data": [
    {"binder": "B1", "values": [
      {"measurement": "Specific Activity (MAC-1/UV)", "setting": "[1]", "result": "1.14 ratio (MAC-1/UV)"},
      {"measurement": "Specific Activity (MAC-1/UV)", "setting": "[2]", "result": "1.03 ratio (MAC-1/UV)"},
      {"measurement": "Specific Activity (MAC-1/UV)", "setting": "[3]", "result": "1 ratio (MAC-1/UV)"},
      {"measurement": "Specific Activity (MAC-1/UV)", "setting": "[4]", "result": "1.05 ratio (MAC-1/UV)"},
      {"measurement": "Specific Activity (MAC-1/UV)", "setting": "[5]", "result": "1.08 ratio (MAC-1/UV)"},
      {"measurement": "Specific Activity (MAC-1/UV)", "setting": "[6]", "result": "1.2 ratio (MAC-1/UV)"},
      {"measurement": "Specific Activity (MAC-1/UV)", "setting": "[7]", "result": "1.1 ratio (MAC-1/UV)"},
      {"measurement": "Specific Activity (MAC-1/UV)", "setting": "[8]", "result": "0.98 ratio (MAC-1/UV)"},
      {"measurement": "Specific Activity (MAC-1/UV)", "setting": "[9]", "result": "1.06 ratio (MAC-1/UV)"},
      {"measurement": "Specific Activity (MAC-1/UV)", "setting": "[10]", "result": "1.09 ratio (MAC-1/UV)"},
      {"measurement": "Specific Activity (MAC-1/UV)", "setting": "[11]", "result": "1.1 ratio (MAC-1/UV)"},
      {"measurement": "Specific Activity (MAC-1/UV)", "setting": "[12]", "result": "1.09 ratio (MAC-1/UV)"},
      {"measurement": "Specific Activity (MAC-1/UV)", "setting": "[13]", "result": "1.13 ratio (MAC-1/UV)"},
      {"measurement": "Specific Activity (MAC-1/UV)", "setting": "[14]", "result": "1.14 ratio (MAC-1/UV)"},
      {"measurement": "Specific Activity (MAC-1/UV)", "setting": "[15]", "result": "1.09 ratio (MAC-1/UV)"}
    ]}
  ]
}
